{"source": "paper doi:10.1101/684738", "target": "E. coli RNAP core enzyme (E. coli)", "experiment": "single-molecule fluorescence colocalisation"}
{"substance": "Cy5-labeled E. coli σ^70 factor (from UniProt P00579 1-613) (natural protein)", "values": [{"measurement": "percent of Cy3-RNA signal colocalized with Cy5 on σ^70", "value": 35, "unit": "%"}, {"measurement": "percent of initially-stalled transcription complexes retaining σ", "value": 75, "unit": "%"}]}
